The record followed here is patent publication US11213565B2, “Protein P8 derived from lactic acid bacteria and its use as anti-cancer agent” (CELL BIOTECH CO., LTD., priority 2016, dated 2022).

Data set [1] has as its system Colorectal cancer DLD-1 cells. The data set can be described thus: Scratch assay, migration of colorectal cancer cells. It counts as cell-based, human. Conditions: 1 μg/ml daily. How it is done: Colorectal cancer DLD-1 cells were treated daily with 1 μg/ml of the P8 protein of Example 1 for 1, 3 or 7 days, and then dispensed into each well of a 6-well plate.
The dispensed DLD-1 cells were cultured overnight, and then the plate having the cells cultured thereon was scratched with a 200 μl tip. To remove suspended material resulting from the scratch, the plate was washed twice with PBS, and then additionally incubated for 24 hours.

The next data set concerns HT-29 cell line. The data set can be described thus: Cell survival rate (WST-8) in HT-29. It counts as cell-based. Conditions: 0.39 μl/ml to 100 μl/ml, 24 hours. How it is done:
(§1) Each of the colorectal cancer cell line DLD-1 and the HT-29 cell line was cultured in a 96-well plate at a density of 1×10^4 cells/well, and the P8 protein of Example 1 was added thereto at a concentration of 0.39 μl/ml to 100 μl/ml. As a negative control, 0.1% PBS buffer used in protein purification was used. The cells were incubated for 24 hours, and then each well was treated with 100 of a cell survival rate measurement kit (Dojindo Cell count kit WST-8) and incubated for 2 hours. The absorbance of each well at 450 nm was measured using a microplate reader (Amersham, Biorad, USA, Japan), and based on the measured values, cell survival rates were calculated.

In data set [2] the test system is human colorectal cancer cell line (DLD-1) xenograft. Nature of the data set: Colorectal cancer xenograft model, tumor volume. It counts as in vivo, nude mice. How it is done: The human colorectal cancer cell line (DLD-1) was transplanted subcutaneously into nude mice, thereby constructing xenograft models. Using the xenograft models, the anticancer activity of the P8 protein of Example 1 was evaluated.
First, for construction of colorectal cancer xenograft models, DLD-1 cells were transplanted subcutaneously into nude mice at a concentration of 1×10^7 cells/100 μl. 10 to 15 Days after the transplantation, the transplanted state of the tumor cells was checked, and mice showing a stable transplanted state were continuously observed. Before tumor's central necrosis occurred, mice showing rapid tumor growth due to supply of sufficient blood were selected, and tumor tissues were collected therefrom. Of the collected tumor tissue, the outer portion in which rapid cell division mainly occurred was cut into a predetermined size (3×3×3 mm), thereby constructing a tumor fragment. Then, the tumor fragment was placed on the tip of a puncture needle (Trocar), and the anterior side of the left rear leg of each animal was incised about 4 mm. The prepared puncture needle was inserted through the incision such that the tip reached the interbody side on the rear side of the left front leg. […] The position of the tumor fragment was determined by touching the skin with hand. […]
During drug administration, the tumor size was measured using Vernier calipers once every two days. […]

Data set [3] relates to colorectal cancer cell line DLD-1. Nature of the data set: Cell survival rate (WST-8) in DLD-1. Conditions: 0.39 μl/ml to 100 μl/ml, 24 hours. It counts as cell-based, human. How it is done:
Colorectal cancer DLD-1 cells were cultured in a 96-well plate at a density of 1×10^4 cells/well, and each of active sites 1 to 3 (SEQ ID NOs: 8 to 10) of Example 1-3 was added thereto at a concentration of 10 μg/ml. As a negative control, 0.1% PBS buffer used in protein purification was used. The cells were incubated for 24 hours, and then each well was treated with 100 of a cell survival rate measurement kit (Dojindo Cell count kit WST-8) and incubated for 2 hours. The absorbance of each well at 450 nm was measured using a microplate reader (Amersham, Biorad, USA, Japan), and based on the measured values, cell survival rates were calculated.
as §1
On the technique in general: Tetrazolium dyes change colour on reduction, which living cells bring about.

For data set [4], the system named is Colorectal cancer DLD-1 cells. The data set can be described thus: LIVE/DEAD viability/cytotoxicity staining of DLD-1. It counts as cell-based, human. Conditions: 1 μg/ml or 10 μg/ml, 24 to 48 hours. How it is done:
(§2) Colorectal cancer DLD-1 cells were cultured in a 6-well plate at a density of 1.5×10^6 cells/well, and a P8 protein of the present invention was added thereto at a concentration of 1 μg/ml or 10 μg/ml. Next, the cells were incubated for 24 to 48 hours, and then washed twice with phosphate buffered saline and treated with 1 ml of a LIVE/DEAD viability/cytotoxicity staining kit, followed by incubation for 20 to 40 minutes. By the staining, living cells were stained green, and dead cells were stained red. The cells were observed under a fluorescent microscope, and the degree of inhibition of viability thereof was analyzed.
as §2, with “and the” for “and a”, “of Example 1” for “of the present invention”, “μg/ml. Each well was” for “μg/ml. Next, the cells were”, “staining, live” for “staining, living”

Data set [5] has as its system NIH3T3 cells (mouse embryonic fibroblast cells). Nature of the data set: Cytotoxicity assay (WST-8) in NIH3T3. It counts as cell-based. Conditions: 0.39 μg/ml to 100 μg/ml, 24 hours. How it is done: In order to examine whether the P8 protein of Example 1 is cytotoxic, a cytotoxicity assay was performed using the P8 protein, highly expressed in NIH3T3 cells (mouse embryonic fibroblast cells), and BSA (bovine serum albumin) as a […] control.
First, NIH3T3 cells were cultured in a 96-well plate at a density of 1×10^4 cells/well, and each of BSA and the highly expressed and purified P8 protein was added thereto at a concentration of 0.39 μg/ml to 100 μg/ml. Each well was incubated for 24 hours, and then treated with 100 of a cell survival rate measurement kit (Dojindo Cell count kit WST-8), followed by incubation for 2 hours. The absorbance of each well at 450 nm was measured using a microplate reader (Amersham, Biorad, USA, Japan), and based on the measured values, cell survival rates were calculated.

B1: P8 protein: 8 KDa protein fragment extracted from Lactobacillus rhamnosus, amino acid sequence SEQ ID NO: 2 (protein, listed as Lactobacillus rhamnosus)
chain: MATVDPEKTLFLDEPMNKVFDWSNSEAPVRDALWDYYMEKNSRDTIKTEEEMKPVLDMSDDEVKALAEKVLKK
In the case of B1, the “decrease of migration rate of the cells compared to untreated control” value in data set [1] (1-day treatment) is reported as 15.7%; in data set [1] (3-day treatment), 45.9%; in data set [1] (7-day treatment), 58.3%. The “cell growth inhibitory effect” value (with HT-29 cell line; in data set [3]) was “about 20%” each time. The “cancer growth inhibitory effects compared to conventional anticancer agents” value in data set [2] (10 mg/Kg or higher, intraperitoneally twice a week for 4 weeks, vs 5-fluorouracil 10 mg/Kg, oxaliplatin 4 mg/Kg) is “superior”. Further, the “cancer growth compared to negative control group” value in data set [2] (1, 5 and 10 mg/Kg intraperitoneally twice a week for 4 weeks) is recorded as “significantly inhibited”. In data set [4], the “dependence of viability on concentration or time of treatment” value is “decreased as the concentration or time of treatment with the P8 protein increased”. Also, the “viability of the cells compared to negative control” value in data set [4] (fluorescent microscope) is given as “decreased”. For the same molecule, the “cytotoxicity (cell survival rate compared with BSA)” value in data set [5] was “not cytotoxic”.
